Article PMC10208126 (mAbs, 2023)

Tests used:
[1] = molecular target: T1, Human IL1RAPL1-Fc (human, UniProt Q9NZN1 19-357); assay: ELISA
T1 sequence (looked up): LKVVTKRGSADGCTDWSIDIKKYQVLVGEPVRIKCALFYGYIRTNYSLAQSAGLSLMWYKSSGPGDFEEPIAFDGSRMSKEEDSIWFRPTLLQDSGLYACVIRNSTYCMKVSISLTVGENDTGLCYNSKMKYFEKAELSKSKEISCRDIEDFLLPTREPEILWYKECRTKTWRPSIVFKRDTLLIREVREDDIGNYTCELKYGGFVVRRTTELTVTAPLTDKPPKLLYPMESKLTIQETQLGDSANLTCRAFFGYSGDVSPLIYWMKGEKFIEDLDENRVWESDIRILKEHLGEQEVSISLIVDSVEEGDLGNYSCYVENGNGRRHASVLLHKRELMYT

[2] = molecular target: T2, Human IL-36R-Fc (human, UniProt Q9HB29 20-335); assay: ELISA
T2 sequence (looked up): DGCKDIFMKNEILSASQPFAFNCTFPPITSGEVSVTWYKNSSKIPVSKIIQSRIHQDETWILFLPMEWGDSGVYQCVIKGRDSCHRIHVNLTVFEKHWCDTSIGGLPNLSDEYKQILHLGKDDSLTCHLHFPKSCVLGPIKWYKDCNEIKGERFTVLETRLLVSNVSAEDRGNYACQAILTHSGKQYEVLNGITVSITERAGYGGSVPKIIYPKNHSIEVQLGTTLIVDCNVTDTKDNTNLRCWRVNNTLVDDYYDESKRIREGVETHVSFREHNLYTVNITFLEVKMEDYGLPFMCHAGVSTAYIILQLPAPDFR

binding result [1]: binds
binding result [2]: binds
B1: Recombinant full length human IL-38 (ligand, UniProt Q8WWZ1 1-152, looked up)
chain: MCSLPMARYYIIKYADQKALYTRDGQLLVGDPVADNCCAEKICILPNRGLARTKVPIFLGIQGGSRCLACVETEEGPSLQLEDVNIEELYKGGEEATRFTFFQSSSGSAFRLEAAAWPGWFLCGPAEPQQPVQLTKESEPSARTKFYFEQSW
